B1: TPR 5TU (parent)
chain: GGAUCUUCUCGAUCUAACAAAAAAGACAAAUCUGCCACAAAGCUUGAGAGCAUCUUCGGAUGCAGAGGCGGCAGCCUUCGGUGGCGCGAUAGCGCCAACGUUCUCAACUAUGACACGCAAAACGCGUGCUCCGUUGAAUGGAGUUUAUCAUG

This sample holds only a part of the variants without activity.

Variants of B1 are the subject of the data set. Briefly: polymerase ribozyme fitness, log enrichment relative to wild type (log ratio); higher = more active; in vitro selection for triplet polymerase activity. Put shortly: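 PCR was used to build mutant libraries for each subunit of a heterodimeric triplet polymerase ribozyme, which were then transcribed. A single in vitro selection round, in triplicate, used a frozen incubation at −7 °C and recovered extended constructs by gel excision, streptavidin beads and RT-PCR. Fitness is the logarithm of genotype enrichment relative to wild-type enrichment, averaged over replicates with inverse-variance weights. The logarithm is base 2, and after Illumina sequencing only genotypes with ≥10 input reads and ≥1 read per output were kept.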
With G92U A115C A119U G140C, the “polymerase ribozyme fitness (log ratio)” value was at most -4.2.

Consider C5U C85G U104C, for which the “polymerase ribozyme fitness (log ratio)” value was -3.03. Regarding C14A A16U G83A C93G C95U A98U C108G, the “polymerase ribozyme fitness (log ratio)” value was at most -4.2.

In the case of C27U A40C G59C G92C A98G C108U C132A U151G, the “polymerase ribozyme fitness (log ratio)” value is at most -4.2. With U90A C99U C103G G140A the figure was at most -4.2. With A20G G80C U82A G100A U135C, the “polymerase ribozyme fitness (log ratio)” value was at most -4.2. With C38A G94U G143U, the “polymerase ribozyme fitness (log ratio)” value is at most -4.2. With C51U G88C the figure was -4.09; with C32A A91U C99U A120C, at most -4.2.

As for A23U U109A, the “polymerase ribozyme fitness (log ratio)” value was at most -4.2. With C72A U78G C85U A97U G140C the figure was at most -4.2; with A41C C63G A64C U111C, at most -4.2. Regarding C38A C93A G143U, the “polymerase ribozyme fitness (log ratio)” value is -4.12.

Take C54A U55C C79A G86C C103G A147C: the “polymerase ribozyme fitness (log ratio)” value is at most -4.2. As to U15G G34U A107C A115U C118A U134C U135G A150G, the “polymerase ribozyme fitness (log ratio)” value was at most -4.2. Consider G67A C87U A107U C125G G126C, for which the “polymerase ribozyme fitness (log ratio)” value was -4.14. Consider C57U A91G A97G U135A G143A, for which the “polymerase ribozyme fitness (log ratio)” value is at most -4.2.

For the variant G58C A89G, the “polymerase ribozyme fitness (log ratio)” value is -0.995. Take C35A C76U G81A C96U C103A: the “polymerase ribozyme fitness (log ratio)” value was at most -4.2. With U82G G92A the figure was -2.96; with A21C G68U, at most -4.2. Under C27A C79A G84A G86U stands at most -4.2.

For the variant C35G A52U U53A U56A C93G C96U C105G G152A, the “polymerase ribozyme fitness (log ratio)” value was at most -4.2. As for A12G C75G C93U C108U A110C, the “polymerase ribozyme fitness (log ratio)” value is at most -4.2. As for A41C G59A G94A A119C, the “polymerase ribozyme fitness (log ratio)” value is -1.52. With A19G C93A the figure was -3.43. Under G126U G152U stands -2.47; under A12G C36A U55G G94A G141C U148G, at most -4.2. In the case of C32U C93A, the “polymerase ribozyme fitness (log ratio)” value is -4.11. As for U56A C96U G133A, the “polymerase ribozyme fitness (log ratio)” value was at most -4.2. With A49G G50A G140U the figure was -3.96; with C5G G59U C99U A119G, -1.53. Under A26U U56A stands -2.17; under U102C U134A, -3.46. Regarding U15G G46U G65A G68C C85U C116G, the “polymerase ribozyme fitness (log ratio)” value is at most -4.2. Under A60C U148G A150U stands at most -4.2. Under C10U A19U A23U C57U G58C C75U U78G C95U C105U stands at most -4.2; under C27U A49C A98G C99A C125U U148C, at most -4.2. Take G94U C96U: the “polymerase ribozyme fitness (log ratio)” value was -0.719. In the case of C87U U146G, the “polymerase ribozyme fitness (log ratio)” value is -0.864. With C14U A47C C54U G84A the figure was -1.86; with A49C G62C U139C, at most -4.2; with A52U G92U C105A, -3.93.

As to C35G G42A U130G C131A, the “polymerase ribozyme fitness (log ratio)” value is -4.12. Under C54A C87A stands -4.19; under G80A C87U A89C C99A A120U, -2. Under A17U G42U C99A C105U A120U stands at most -4.2; under C57A G58A, 1.15; under A29C A41C G62A G84A U90A C118G, at most -4.2. Take A12U A49C U53A C85U C118G U151G: the “polymerase ribozyme fitness (log ratio)” value was at most -4.2.

As to C38A C76A C93U G117A, the “polymerase ribozyme fitness (log ratio)” value was -1.25. With C87G G152U the figure was -3.57; with A19U U31C G46A C96U C131U U139G, -2.16. Take G84U A97U: the “polymerase ribozyme fitness (log ratio)” value is -1.54. Under A3C C14G A39C G81U C96U C105U A121U U134C U135C U148C stands at most -4.2. In the case of G42C C99U, the “polymerase ribozyme fitness (log ratio)” value was at most -4.2. Under C96A G152U stands -2.51; under C32G C87U A107U A113C C116A, at most -4.2; under A24U U82A C96G, 0.476. With U15G G84A the figure was -1.57; with U13G C36A C85U A115U U139C, at most -4.2; with C27G C63A C85U C87A G136A A138C, at most -4.2.

Consider C79G A98G G100C G124A, for which the “polymerase ribozyme fitness (log ratio)” value was -2.18. With A3U C36U, the “polymerase ribozyme fitness (log ratio)” value is -2.21. Take A19U U55A G59U: the “polymerase ribozyme fitness (log ratio)” value came to 0.528. With C18U A26U C75G G83A A122U G143A the figure was -3.81; with A12G A39U G42C C57A G59C C79A U134A, at most -4.2; with A52G G86A, -0.796. Under A49G G74C U101G G112C A122U U127A A138C stands at most -4.2; under U45A U82A A106G A122G U148G, at most -4.2; under A21C A37C G84A, 0.0671. As to C35U G86U, the “polymerase ribozyme fitness (log ratio)” value is -1.43. Consider C27U A28G U53G A73G C85U G86C A120U C132U, for which the “polymerase ribozyme fitness (log ratio)” value was at most -4.2. Under A26U G59A G83A C87G C93G A97G U104C U139C stands at most -4.2; under G71U G141U, -3.55. Take U45A C85A C93U C96U C118A C132A: the “polymerase ribozyme fitness (log ratio)” value was at most -4.2. With A23C C43A C54U A73U C99G the figure was at most -4.2; with A16C G126A, -0.0283. Under C57A C85G stands -1.75; under A12G A37G C87U U109G U144C U145C C149G, at most -4.2; under A20G U31G G86A, -1.52. As to G50A U55A C87G C103U C116G, the “polymerase ribozyme fitness (log ratio)” value was at most -4.2.

Take A20U A30U C76U A89G A91C A122G U134G: the “polymerase ribozyme fitness (log ratio)” value is at most -4.2.
